Assay results taken from the RNAGym collection of RNA variant scans (doi:10.1073/pnas.2313332121).

B1: TPR t1 (parent)
chain: GACCAAUCUGCCCUCAGAGCUCGAGAACAUCUUCGGAUGCAGAGGAGGCAGGCUUCGGUGGCGCGAUAGCGCCAACGUCCUCAACCUCCAAUGCAUCCCACCACAUGAUGAUGCCUGAAGAGCCUUGGUUUUUUG

Variants of: B1
Experiment: polymerase ribozyme fitness, log enrichment relative to wild type (log ratio); higher = more active; in vitro selection for triplet polymerase activity
Method in brief: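 Mutant libraries for each subunit of a heterodimeric triplet polymerase ribozyme were made by PCR and then transcribed. Each library underwent one round of in vitro selection in triplicate: annealing with a biotinylated primer, the partner subunit and triplets, frozen incubation at −7 °C, gel excision of extended constructs, streptavidin-bead capture and RT-PCR. Input and output libraries were Illumina-sequenced, and only genotypes with ≥10 input reads and ≥1 read per output were kept. Fitness is the logarithm, base 2, of genotype enrichment over wild-type enrichment, computed from inverse-variance-weighted replicate averages.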

**Q.** With GACCAAUCUGCCCUCAGAGCUCGAGAACAUCCUCGGAUGCAGAGGAGGCAGGCUUCGGUGGCGCGAUAGCGCCAACGUCCUCAACUUCCAAUGCAUCCCAUCACAUGAUGAUGACUGAAGAGCCUUGGUUUUUUG as the variant, how does the “polymerase ribozyme fitness (log ratio)” value read?
**A.** Its value is -4.6.

**Q.** For GACCAAUCUGCCCUCAGAGCUCGAGAACAUCCUCGAAUGCAGAGGAGGCAGGCUUCGGUUGCGCGAUAGCGCCAACGUCCUCAACCUCCAAUGCAUCCCACCACAUGAUGAUGCCUGAAGAGCCUUGGUUUUUUG, which “polymerase ribozyme fitness (log ratio)” value is on record?
**A.** Its value is -2.12.

**Q.** For GACCAAUCUGCCCUCAGAGCUCGAGAACAUCCUCGGAUGCAUUGGAGGCAGGCUUCGGUGGCGCGAUAGCGCCAACGUCCUCAACCCCCAAUGAAUCCCAUUACAUGAUGAUGCCUGAAGAGCCUUGGUUUUUUG, which “polymerase ribozyme fitness (log ratio)” value is on record?
**A.** The value was -5.8.

**Q.** For GACCAAUCUGCCCUCAGAGCUCGAGAACAUCCUCGGAUGCAGAGGAGGCAGGCUUCGGUGGCGCGAUAGCGCCAACGUCCUCAACCUCCAAUGCAUCACACCACAAGAUGAUGCCUGAAGAGCCUUGGUUUUUUG, which “polymerase ribozyme fitness (log ratio)” value is on record?
**A.** Its value is -6.32.

**Q.** For GACCAAUCUGCCCUCAGAGCUCGAGAACAUCCUCGGAUGCAGAGGAGGCAGGCUUUGGUAGCGCGAUAGCGCCAACGUCCUCAACCUACAAUGCAUCCCACCACAUGAUGAUGCCUGAAGAGCCUUGGUUUUUUG, which “polymerase ribozyme fitness (log ratio)” value is on record?
**A.** The value was -5.77.

**Q.** For GACCAAUCUGCCCUCAGAGCUCGAGAACAUCCUCGGAUGCAGAGGAGGCAGGCUUCGGUGGCGCGAUAGCGCUAACGUCCUCAACCUCCAAUGCAUCCCACCACAUGAUGAUGCCUGGAGAGCCUUGGUUUUUUG, which “polymerase ribozyme fitness (log ratio)” value is on record?
**A.** The value was -0.657.

**Q.** For GACCAAUCUGCCCUCAGAGCUCGAGAACAUCCUCGGAUGCAAAGGAGGCAGGCUUUGGUGGCGCGAUAGCGCCAACGUCCUCAACCUCCAAUGCAUCCCACCACAUGAUGAUGCUUGAAGAGCCUUGGUUUUUUG, which “polymerase ribozyme fitness (log ratio)” value is on record?
**A.** The value was -1.93.

**Q.** Which “polymerase ribozyme fitness (log ratio)” value does the source give for GACCAAUCUGCCCUCAGAGCUCGAGAACAUCCUCGGAUGCAGAGGAGGCAGGCUUCGGUGGCGCGAUAGCGCCAACGUCCUCAACCUCCAAUGCAUCCCACGACAUGAUGAUACCUGAAGAGCCUUGGUUUUUUG here?
**A.** Its value is -7.53.

**Q.** Which “polymerase ribozyme fitness (log ratio)” value does the source give for GACCAAUCUGCCCUCAGAGCUCGAGAACAUCCUCUGAUGCAGAGGAGGCAGGCUUCGGUGGCGCGAUAGCGCCAACGUCCUCAACCUCCAAUGCAUCCCACCACAUGGUGAUGCCUGAAGGGCCUUGGUUUUUUG here?
**A.** Its value is -7.39.

**Q.** For GACCAAUCUGCCCUCAGAGCUCGAGAACAUCCUCGGAUUCAGAGGAGGCAGGCUUUGCUGGCGCGAUAGCGCCAACGUCCUCAACCUCCAAUGCAUCCCACCACAUGAUGAUGCCUGAAGAGCCUUGGUUUUUUG, which “polymerase ribozyme fitness (log ratio)” value is on record?
**A.** The value was -0.298.

**Q.** Which “polymerase ribozyme fitness (log ratio)” value does the source give for GACCAAUCUGCCCUCAGAGCUCGAGAACAUCCUCGGAUGCAGAGGAGGCAGGCUUCGGUGGCGCGAUAGCGCCAACGUCCUCAACCUCCAAUGCAUCCCACCAUAUGAUGAUGCCUGAAGAGCCUUGGUUUUUUG here?
**A.** The value was 0.382.

**Q.** Which “polymerase ribozyme fitness (log ratio)” value does the source give for GACCAAUCUGCCCUCAGAGCUCGAGAACAUCCUCGGAUGCACAGGAGGCAGGCGUCGGUGGCGCGAUAGCGCCAACGUCCUCAACCUCCAAUGAAUCCCACCACAUGAUGAUGCCUGAAGAGCCUUGGUUUUUUG here?
**A.** The value was -2.1.

**Q.** Which “polymerase ribozyme fitness (log ratio)” value does the source give for GACCAAUCUGCCCUCAGAGCUCGAGAACAUCCUCGGAUGCAGAGGAGGCAGGCUUCGGUGGCGCGAUAGCGACAACGUCCUCAACCUCCAAUGCAUCCCAUCACAUGAUGAAGCCUGAAGAGGCUUGGUUUUUUG here?
**A.** The value was -3.08.

**Q.** With GACCAAUCUGCCCUCAGAGCUCGAGAACAUCCUCGGAUGCAGAGGAGGCAGGCUUCGGUGGAGCGAUAGCGCCAACGUCCUCAACCUCCAAUGCAUCCCACCACAUGAUGAUGCCUGAAGAGCCUUGGUUUUUUG as the variant, how does the “polymerase ribozyme fitness (log ratio)” value read?
**A.** The value was -1.92.

**Q.** With GACCAAUCUGCCCUCAGAGCUCGAGAACAUCCUCGGAUGCAGAGGAGGCAGGCUUCGGUGGCGCGAUAGCGCUAACGUCCUCAACCUCCAAUGCAUCCCACCACAUGAUGAUGCCUUAAGAGCCUUGGUUUUUUG as the variant, how does the “polymerase ribozyme fitness (log ratio)” value read?
**A.** Its value is -2.41.

**Q.** For GACCAAUCUGCCCUCAGAGCUCGAGAACAUCCUCGGAUGCAGAGGAGGCAGGCUUCGGUGGCGCGAUAGCGCCAACGUCCUCAACCUCCAAUGCAUCCCACCACAUGAUGAUGCCUGAAGAGCGUUGGUUUUUUU, which “polymerase ribozyme fitness (log ratio)” value is on record?
**A.** Its value is 0.917.

**Q.** With GACCAAUCUGCCCUCAGAGCUCGAGAACAUCCUCGAAUGCAGAGGAGGCAGGCUUCGGUGGCGCGAUAGCGCCAACGUCCUCCACCUCCAAUGCAUCCCACCACAUGAUGAUGCCUGAAGAGCCUUGGUUUUUUG as the variant, how does the “polymerase ribozyme fitness (log ratio)” value read?
**A.** Its value is -3.09.

**Q.** Which “polymerase ribozyme fitness (log ratio)” value does the source give for GACCAAUCUGCCCUCAGAGCUCGAGAACAUCCUCGGAUGCAGAGGAGGCAGGCUUCGGUGGCGCGAUAGCGCCAACGUCCUGAACCACCAAUGCAUCCCACCACAUGAUGAUGCCUGAAGAGCCUUGGUUUUUUG here?
**A.** Its value is -2.42.

**Q.** Which “polymerase ribozyme fitness (log ratio)” value does the source give for GACCAAUCUGCCCUCAGAGCUCGAGAACAUCCUCGAAUGCAGAGGAGGCAGGCUUCGGUGGCGAGAUAGCGCCAACGUCCUCAACCUCCAAUGCAUCCCACCACAUGAUGGUGCCUGAAGAGCCUUGGUUUUUUG here?
**A.** The value was -5.64.

**Q.** For GACCAAUCUGCCCUCAGAGCUCGAGAACAUCCUCGGAUGCAGAGGAGGCAGGCUUCGGUGGCGCGAUAGCGACAACGUCCUCAACCUCCAAUGCAUCCCACCACAUGAUGAUGCCUGAAGAGCCUUGGUUUUUUG, which “polymerase ribozyme fitness (log ratio)” value is on record?
**A.** The value was 0.0616.

**Q.** With GACCAAUCUGCCCUCAGAGCUCGAGAACAUCCUCGGAUGCAGAGGAGGCAGGCUUCGGUGGCGCGAUAGCGGCAACGUCCUCAACCUCCAAUGCAUCCCACCACAUGAUGAUGCCUGAAGAGCCUUGGUUUUUUG as the variant, how does the “polymerase ribozyme fitness (log ratio)” value read?
**A.** The value was -0.273.
